The values below come from patent publication US20210009693A1 (MABSPACE BIOSCIENCES SUZHOU, published 2021).

The term EC50 (read off the curve) denotes the midpoint of the concentration-response curve.

Where two headings read alike, the source gives them in different places.

In experiment [1] the target is T1, Recombinant Mouse PD-L1/CD274 Protein (mPD-L1-his) (mouse, UniProt Q9EP73 19-238).
T1 construct: range 19-238; ACRO Biosystem PD1-M5220; also called mouse PD-L1-his
Kind of experiment: ELISA, plate coated with mouse PD-L1-his. (In general: In an ELISA, binding on a coated surface is turned into a signal by an enzyme label.)

The target of experiment [2] is T2, Recombinant Human PD-L1/CD274 Protein (hPD-L1-his) (human, UniProt Q9NZQ7 19-238).
T2 construct: range 19-238; ACRO Biosystem PD1-H5229, made in HEK293; also called human PD-L1-his; hPD-L-his
T2 sequence (Q9NZQ7 other isoform, or with tags, fused parts or gaps limits assumed): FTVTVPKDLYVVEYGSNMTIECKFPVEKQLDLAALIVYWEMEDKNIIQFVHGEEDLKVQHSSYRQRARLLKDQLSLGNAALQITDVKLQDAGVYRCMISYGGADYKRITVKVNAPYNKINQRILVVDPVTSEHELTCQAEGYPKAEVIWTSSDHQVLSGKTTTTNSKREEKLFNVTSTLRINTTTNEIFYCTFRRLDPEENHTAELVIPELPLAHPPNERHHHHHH
Kind of experiment: ELISA on coated human PD-L1-his. As to the method:
(§1) High-binding clear polystyrene 96-well plates (Nunc) were coated with 100 μl/well of a 0.5 μg/ml human or cynomolgus (cyno) PD-L1-his in high pH coating buffer and incubated overnight at 4° C. Then plates were washed once on an automatic plate washer using washing buffer (PBS+0.1% Tween 20 (Sigma)). 200 μl of blocking buffer (PBS+1% BSA+1% normal goat serum+0.05% Tween-20) was added to each well and incubated for 2 hours at room temperature. Then add serial diluted antibodies with dilution buffer (PBS+1% BSA+1% normal goat serum+0.01% Tween-20) and incubated for 1 hour at RT. The plates were then washed 3 times using the method described above. […] After that the ELISA plates were allowed to incubate for 60 min at RT then plates were washed 3 times with 250 μl/well washing buffer. Finally, 100 μl/well of TMB was added to each well and the reaction was terminated using 0.64M H₂SO₄. The plates were read on a Thermo Multiscan FC at 450 nM (see FIG. 6A to 6E).

Experiment [3] has as its target T3, Cynomolgus PD-L1/CD274 with His tag (cPD-L1-His) (cynomolgus).
T3 construct: range 19-238; ACRO Biosystem PD1-C52H4; also called cynomolgus (cyno) PD-L1-his; cynomolgis PD-L1-his
Kind of experiment: ELISA on coated cynomolgus PD-L1-his. The method, then:
as §1

For experiment [4], the target named is T2, Recombinant Human PD-L1/CD274 Protein …. Kind of experiment: ELISA on coated hPD-L1-his; bound at pH7.4, then 2 h at pH5.5.
Experiment [5] shares this target. The experiment in a line: ELISA on coated hPD-L1-his; bound at pH7.4, then 2 h at pH7.4.
Experiment [6] shares this target. The experiment in a line: ELISA on coated hPD-L1-his.
Experiment [7] deals with T4, human PD-L1 expressed on cells (human, UniProt Q9NZQ7 19-290).
T4 construct: whole, on cells; also called hPD-L1 expressed on HCC827; hPD-L1 on MC38/hPD-L1 cells
T4 sequence (Q9NZQ7 19-290): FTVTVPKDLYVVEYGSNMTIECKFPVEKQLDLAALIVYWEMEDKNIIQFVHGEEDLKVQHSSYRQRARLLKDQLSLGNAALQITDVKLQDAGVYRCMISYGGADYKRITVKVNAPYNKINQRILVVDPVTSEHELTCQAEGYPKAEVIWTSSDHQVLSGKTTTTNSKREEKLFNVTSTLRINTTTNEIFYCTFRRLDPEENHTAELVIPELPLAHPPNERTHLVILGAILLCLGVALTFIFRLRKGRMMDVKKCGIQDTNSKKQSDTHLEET
The experiment in a line: FACS, IFN-gamma stimulated HCC827 cells. As to the method:
Log phase IFN-γ stimulated (500U/ml for 2 days) HCC827 cells were collected and resuspended in blocking buffer (5% BSA+PBS). 2×10\hat{ }5 cells were added to each tube and then washed once with PBS (1500 rpm, 5 mins, RT). The 100 μl/tube serial diluted biotinylated PD-L1 antibodies with blocking buffer were added into corresponding tubes and incubate at 4° C. for 1 hr.

The target of experiment [8] is T2, Recombinant Human PD-L1/CD274 Protein …. The experiment in a line: ELISA on coated hPD-L1-his; bound at pH7.4, then 2 h at pH5.5. The source holds these as a separate data set.
Experiment [9] has the same target. The experiment in a line: ELISA on coated hPD-L1-his; bound at pH7.4, then 2 h at pH7.4. The source holds these as a separate data set.
Experiment [10] has as its target T4, human PD-L1 expressed on cells. The experiment in a line: blocking FACS on HCC827 cells; blocked ligand: biotinylated hPD-1-N297A. As to the method:
Log phase IFN-γ stimulated (500U/ml for 2 days) HCC827 cells were collected and resuspended in blocking buffer (5% BSA+PBS). 2×10\hat{ }5 cells were added to each tube and then washed once with PBS (1500 rpm, 5 mins, RT). The 100 μl/tube serial diluted PD-L1 antibodies (see FIG. 8) with blocking buffer were added into corresponding tubes and incubate at 4° C. for 1 hr. […] After washing for three times with PBS, 100 μl/tube streptavidin-PE 1:200 (EBiosciences) in blocking buffer was added to each tube. The cells were incubated at 4° C. for 1 hr and then washed twice with PBS, followed by resuspending cells in 150 μl PBS for each sample. The cells were then transferred into FACS tube and the binding of the antibodies to the cells were detected with flow cytometry (ACEA Bioscience Novocyte).

Experiment [11] deals with T5, Human PD-L1/CD274 with C-Fc Tag (hPD-L1-Fc) (human, UniProt Q9NZQ7 19-238).
T5 construct: range 19-238; ACRO Biosystem PD1-H5258, made in HEK293; also called human PD-L1-Fc; not shown: Fc fragment of human IgG1 at C-terminus
T5 sequence (Q9NZQ7 19-238 limits assumed): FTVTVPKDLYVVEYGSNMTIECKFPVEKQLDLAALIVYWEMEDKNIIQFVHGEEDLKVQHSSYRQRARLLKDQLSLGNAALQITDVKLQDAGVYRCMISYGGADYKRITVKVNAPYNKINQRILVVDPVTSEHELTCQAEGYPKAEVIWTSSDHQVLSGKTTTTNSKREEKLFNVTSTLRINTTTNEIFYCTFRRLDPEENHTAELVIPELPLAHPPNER
The experiment in a line: blocking ELISA on coated hPD-L1-Fc; blocked ligand: biotinylated hPD-1-N297A.

The target in the next experiment is T6, hPD-L2-Fc (human, UniProt Q9BQ51 20-219).
T6 construct: Acrobiosystems PD2-H5251; also called human PD-L2 protein; not shown: Fc tag
T6 sequence (looked up): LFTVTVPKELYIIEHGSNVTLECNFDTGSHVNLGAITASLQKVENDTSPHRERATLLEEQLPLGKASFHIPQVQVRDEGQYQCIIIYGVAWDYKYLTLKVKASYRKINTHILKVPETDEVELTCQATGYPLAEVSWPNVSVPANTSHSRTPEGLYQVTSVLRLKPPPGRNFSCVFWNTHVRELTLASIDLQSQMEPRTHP
The experiment in a line: ELISA, plate coated with hPD-L2-Fc.

Experiment [12] has as its target T7, wild type human PD-L1-Fc protein (SEQ ID NO: 107) (human).
T7 construct: Extracellular human PD-L1 (amino acid 19-238) with Fc fragment of human IgG1, expressed in 293T cells and used as culture supernatant; also called WT PD-L1; wild-type PD-L1
Kind of experiment: ELISA on captured PD-L1-Fc, as in Example 18A.

The target in experiment [13] is T8, human PD-L1-Fc mutant E58A (human).
T8 construct: Position 58 counts on native human PD-L1 (NP_054862.1); also called E58A mutant
T8 sequence (chain, as listed by the source E58A E58A limits assumed): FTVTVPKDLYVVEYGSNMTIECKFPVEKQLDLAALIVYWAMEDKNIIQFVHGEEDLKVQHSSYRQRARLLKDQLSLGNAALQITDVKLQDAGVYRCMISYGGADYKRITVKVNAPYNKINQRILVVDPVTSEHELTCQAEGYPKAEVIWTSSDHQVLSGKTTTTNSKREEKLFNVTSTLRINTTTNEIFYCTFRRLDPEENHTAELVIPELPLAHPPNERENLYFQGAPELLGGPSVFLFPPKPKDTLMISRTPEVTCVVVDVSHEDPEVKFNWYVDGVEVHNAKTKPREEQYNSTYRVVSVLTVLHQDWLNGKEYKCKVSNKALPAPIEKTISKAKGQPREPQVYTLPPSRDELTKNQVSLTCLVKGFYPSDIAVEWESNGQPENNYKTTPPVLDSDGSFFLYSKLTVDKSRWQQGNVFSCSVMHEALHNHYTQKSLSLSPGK
The experiment in a line: ELISA on captured PD-L1-Fc, as in Example 18A.

Experiment [14] concerns the target T4, human PD-L1 expressed on cells. Kind of experiment: FACS, IFN-gamma stimulated HCC827 cells. The method, then:
Log phase IFN-γ stimulated (500U/ml for 2 days) HCC827 cells were collected and resuspended in blocking buffer (5% BSA+PBS). 2×10\hat{ }5 cells were added to each tube and then washed once with PBS (1500 rpm, 5 mins, RT). The 100 μl/tube serial diluted PD-L1 antibodies purified from hybridoma supernatant in blocking buffer were added into corresponding tubes and were incubated at 4° C. for 1 hr. The cells were then washed twice with 1 ml PBS, followed by adding 100 μl/tube of 2nd antibody (1:400 anti-mIgG (H+L)-PE, Cell signaling) in blocking buffer. The cells were incubated at 4° C. for 1 hr and then washed twice with PBS, followed by resuspending cells in 150 μl PBS for each sample. The cells were then transferred into FACS tube and the bindings of the antibodies to the cells were detected using flow cytometry (BD Accuri C6) (see FIG. 5A).
This is another data set of the same source.

The target of experiment [15] is T2, Recombinant Human PD-L1/CD274 Protein …. Kind of experiment: ELISA, purified mouse antibody on coated hPD-L1-his. As to the method:
High-binding clear polystyrene 96 well plates (Nunc) were coated with 100 μl/well of a 0.5 μg/ml hPD-L1-his in high pH coating buffer and incubated overnight 4° C. Then plates were washed once on an automatic plate washer using washing buffer (PBS+0.1% Tween 20 (Sigma)). 200 μl of blocking buffer (PBS+1% BSA+1% normal goat serum+0.05% Tween-20) was added to each well and incubated 2 hours at room temp. Then add serially diluted purified antibodies with dilution buffer (PBS+1% BSA+1% normal goat serum+0.01% Tween-20) and incubate for 1 hour at RT. The plates were then washed 3 times using the method described above. 100 μl/well of a solution of HRP conjugated goat anti-mouse Fc antibody (Abcam) in dilution buffer was then added to each well of the plate. After that the ELISA plates were allowed to incubate for 60 min at RT then plates were washed 3 times with 250 μl/well washing buffer. Finally, 100 μl/well of TMB was added to each well and was terminated using 0.64M H₂SO₄. The plates were read on a Thermo Multiscan FC at 450 nM (see FIG. 3).

In experiment [16] the target is T4, human PD-L1 expressed on cells. Kind of experiment: blocking FACS on HCC827 cells; blocked ligand: biotinylated hPD-1-N297A. As to the method: Log phase IFN-γ stimulated (500U/ml for 2 days) HCC827 cells were collected and resuspended in blocking buffer (5% BSA+PBS). 2×10\hat{ }5 cells were added to each tube and then washed once with PBS (1500 rpm, 5 mins, RT). […] The cells were incubated at 4° C. for 1 hr and then washed twice with PBS, followed by resuspending cells in 150 μl PBS for each sample.
This is another data set of the same source.

Experiment [17] has as its target T1, Recombinant Mouse PD-L1/CD274 Protein …. The experiment in a line: ELISA, 20 ug/ml antibody on coated mouse PD-L1 (his-tagged per text, mPD-L1-Fc per sheet title). In short, it runs like this: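 Wells coated overnight at 4 °C with 1 μg/ml mouse PD-L1-his, blocked 2 h with BSA/goat serum buffer; purified hybridoma mouse antibodies at 20 μg/ml bound 1 h at RT. Detection by HRP goat anti-mouse Fc (60 min, RT), TMB, acid stop, absorbance at 450 nm.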

T7 sequence (chain, as listed by the source limits assumed): as the sequence (chain, as listed by the source E58A E58A limits assumed) above, with A40E counted along it
T1 sequence (Q9EP73 other isoform, or with tags, fused parts or gaps limits assumed): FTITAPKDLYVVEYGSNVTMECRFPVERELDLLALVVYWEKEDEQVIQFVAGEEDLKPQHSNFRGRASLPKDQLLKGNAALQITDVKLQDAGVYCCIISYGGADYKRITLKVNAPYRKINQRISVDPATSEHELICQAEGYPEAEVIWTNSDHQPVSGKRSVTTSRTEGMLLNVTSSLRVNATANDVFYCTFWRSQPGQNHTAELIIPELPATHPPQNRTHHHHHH

B1: 4B6-C (antibody, V domains shown)
VH: EVQLQQSGPELVKPGASVKISCKASGYVFTDYYMNWVKQSHGKSLEWIGDINPNNGGTSYNHKFKGKATVTVDKSSRTAYMELLSLTSEDSAVYYCVKWGDGPFAYWGQGTLVTVSA
VL: DIVMTQSQKFMSTSVGDRVSITCKASQNVGAAVAWYQQKPGQSPKLLIYSASNRYTGVPDRFTGSGSGTDFTLTISNMQSEDLADYFCQQYSNYPTFGSGTKLGIK
notes: Mouse variable regions fused to a human IgG1 constant region; also called 4B6-chimeric; chimeric antibody 4B6
As for B1, the binding result in [1] was “no binding (tested: 20 ug/ml)”. The “EC50 (read off the curve)” value was around 0.01 µg/mL in experiment [2], around 0.01 µg/mL in [3], around 0.02 µg/mL in experiment [4] and around 0.01 µg/mL in experiment [5].

B2: 23F11-C (antibody, V domains shown)
VH: QVQLQQPGAELVKPGASVKLSCKASGYSFTTYWMHWVKQRPGQGLEWIGMIQPNSGGTKYNEKFKKKATLTVDKSSTTASMELSSLTSEDSAVYYCARGAGTVDYFDYWGQGSTLTVSS
VL: DIVLTHSPVSLAVSLGQRATISCRASESVDIYGNSFMHWYQQKPGQPPKLLIYRASNLESGIPARFSGSGSRTDFTLTINPVEADDVATYYCQQSTEDPYTFGGGTKLEIK
notes: Mouse variable regions fused to a human IgG1 constant region; also called 23F11-chimeric; chimeric antibody 23F11
Take B2: the “EC50 (read off the curve)” value in experiment [6] was around 4 ng/mL; in [7], around 0.04 µg/mL; in experiment [8], around 0.03 µg/mL; in [9], around 0.02 µg/mL. Also, the “IC50 (read off the curve)” value in experiment [10] was around 0.04 µg/mL; in experiment [11], around 0.05 µg/mL.

B3: 22C9 (antibody, V domains shown)
VH: QVQLQQSGAELVKPGASVKLSCKASGYTFTSYWMHWVWQRPGQGLEWIGMIHPNSDITNCNENFKHTVTLTVDKSSSTAYMQLSSLTSEDSAVFYCARSDGSSYWYFDVWGTGTTVTVSS
VL: SIVMTQTPKFLSVSAGDRVTITCKAGQSVNNDVAWYQQKPGQSPKLLIYYASNRYTGVPDRFTGSGYGTDFTFTISTVQAEDLAVYFCQQDFSSPLTFGAGTKLELK
notes: Mouse monoclonal from hybridoma; also called mouse monoclonal antibody 22C9
Consider B3, for which the binding result with hPD-L2-Fc is recorded as “no binding (tested: 2 ug/ml)”. In [12], the “Mean OD450” value is 1.92 OD450, the “OD450 nM of sample-1” value was found to be 1.9 OD450 and the “OD450 nM of sample-2” value was found to be 1.94 OD450. In experiment [13], the “% of binding of Ab to E58A mutant vs. that to WT PD-L1” value is 17.2%, the “Mean OD450” value stood at 0.33 OD450, the “OD450 nM of sample-1” value worked out at 0.35 OD450 and the “OD450 nM of sample-2” value was 0.309 OD450. Further, the “EC50 (read off the curve)” value in experiment [14] is around 0.1 µg/mL. For the same molecule, in experiment [15], the “EC50 (read off the curve)” value was around 0.08 µg/mL. Moreover, the “IC50 (read off the curve)” value in [16] is around 0.2 µg/mL. The binding result in experiment [17] is given as “no binding (tested: 20 ug/ml)”.
